Experimental data from patent publication US20200246472A1.
Square brackets hold non-standard residues; d marks the D form. Ends that are not written are not given here. Dmt = Cc1cc(O)cc(C)c1C[C@H](N)C(=O)O

Assays:
Test in all cases: binding test (Ki), method not described
[1] = molecular target: DOR
[2] = molecular target: MOR
[3] = molecular target: KOR

MOR, sequence (P35372 whole entry): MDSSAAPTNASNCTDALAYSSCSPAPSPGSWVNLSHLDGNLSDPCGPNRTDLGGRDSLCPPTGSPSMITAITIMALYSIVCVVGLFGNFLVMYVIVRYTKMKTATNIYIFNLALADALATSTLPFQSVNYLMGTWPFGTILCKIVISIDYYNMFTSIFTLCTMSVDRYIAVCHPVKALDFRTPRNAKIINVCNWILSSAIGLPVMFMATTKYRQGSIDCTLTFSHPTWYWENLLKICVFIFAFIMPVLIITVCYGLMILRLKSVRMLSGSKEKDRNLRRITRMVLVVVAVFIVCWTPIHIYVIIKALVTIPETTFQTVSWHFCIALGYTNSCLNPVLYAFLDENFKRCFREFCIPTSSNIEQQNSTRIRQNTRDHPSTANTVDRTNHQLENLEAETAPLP

B1: CM-58 (peptide)
peptide: [Dmt]PWFQFQFK-NH2
modifications: N-terminus assumed
SMILES: Cc1cc(O)cc(C)c1C[C@H](N)C(=O)N1CCC[C@H]1C(=O)N[C@@H](Cc1c[nH]c2ccccc12)C(=O)N[C@@H](Cc1ccccc1)C(=O)N[C@@H](CCC(N)=O)C(=O)N[C@@H](Cc1ccccc1)C(=O)N[C@@H](CCC(N)=O)C(=O)N[C@@H](Cc1ccccc1)C(=O)N[C@@H](CCCCN)C(N)=O
With B1 as the binder, how does the Ki [1] read?
Its Ki is 15 nM.

And the Ki [2]?
The Ki was 7.5 nM.

And the Ki [3]?
Its Ki is 120 nM.

B2: CM-56 (peptide)
peptide: [Dmt]PFFQFQFK-NH2
modifications: N-terminus assumed
SMILES: Cc1cc(O)cc(C)c1C[C@H](N)C(=O)N1CCC[C@H]1C(=O)N[C@@H](Cc1ccccc1)C(=O)N[C@@H](Cc1ccccc1)C(=O)N[C@@H](CCC(N)=O)C(=O)N[C@@H](Cc1ccccc1)C(=O)N[C@@H](CCC(N)=O)C(=O)N[C@@H](Cc1ccccc1)C(=O)N[C@@H](CCCCN)C(N)=O
B2 was tested. Which Ki [1] did it give?
Its Ki is 176 nM.

And the Ki [2]?
Its Ki is 65 nM.

What about the Ki [3] of the same binder?
The Ki was 337 nM.
